Experiments:
N-Myc = N-Myc immunoblot of nuclear extracts of Chang cells expressing HBx; format: cell-based; conditions: Chang cells co-expressing HBx; serum-starved 20 hours
Description: Cells were lysed in 1% Triton, 20 mM Hepes pH 7.4, 150 mM NaCl, 10% Glycerol, 1 mM Na3VO4, 50 mM NaF, 1 mM PMSF, 10 μg/ml aprotinin, and 10 μg/ml leupeptin. Equal amounts of protein were immunoprecipitated on ice for 2 hours and the immune complexes were collected by incubation with protein A-agarose (Santa Cruz) for 60 minutes at 4° C. Immunoprecipitates were washed three times with HNTG (20 mM Hepes pH 7.4, 150 mM NaCl, 0.1% Triton, and 10% Glycerol), resuspended in Laemmli sample buffer, heated to 95° C. for 10 minutes, resolved by electrophoresis on SDS-polyacrylamide gels, and immunoblotted to nitrocellulose using standard techniques (Harlow and Lane, 1988, Antibodies: A Laboratory Manual (Cold Spring Harbor, N.Y.; CSH Laboratory Press)). Immunoblots were visualized using the ECL chemiluminescence system (Amersham).
Nuclear extracts were prepared according to a modified Dignam protocol (Su and Schneider, 1996). Cell pellets were resuspended in 250 μl of cold Buffer A (10 mM Hepes pH 7.9, 1.5 mM MgCl2, 10 mM KCl, 0.5 mM DTT, 1 mM PMSF, 10 μg/ml leupeptin and 10 μg/ml aprotinin), swollen on ice for 10 min, vortexed for 10 sec, and centrifuged for 10 sec at 12,000×g. […]

MAP kinase (ERK2) [1] = assay: MAP kinase (ERK2) immunoprecipitation MBP kinase assay in Chang cells expressing HBx; format: cell-based
CMV promoter = assay: CMV-βgal reporter control (β-galactosidase activity); format: cell-based; conditions: co-expression with CMV-βgal
Source text: To assess whether HBx activation of a Src signaling cascade plays an essential role in transcriptional upregulation of the viral mRNAs, Chang cells were co-transfected with wtWHV and either RasDN or Csk plasmids, and the RNA visualized by Northern analysis (FIG. 7, lanes 2 and 3). […] To ensure that the decrease in synthesis of WHV RNA by Csk was not the unforseen consequence of Csk inhibition of the CMV promoter (which drives synthesis of the WHV pregenomic RNA), control experiments assessing the effect of Csk on a CMV-βgal reporter were carried out. […] However, the WHx-induced increase in mRNA abundance (˜3-5 fold) is much less then the HBx-induced increase in viral DNA synthesis (˜20-30 fold). […] The stimulation of Src signaling cascades by HBx must therefore promote WHV replication independent of the effect of WHx on viral transcription.

WHV [2] = assay: WHV replication in Chang cells, Southern blot of intracellular core-associated viral DNA; format: cell-based, Woodchuck Hepatitis B Virus; conditions: Chang cells co-transfected with wtWHV; 3 days post-transfection
Description: FIG. 7. WHx requires activation of Src family kinase for WHV replication. Chang cells were co-transfected with 20 μg PCWHV, wtWHV, wtWHV and RasDN (dominant-negative) (10 μg), or wtWHV and Csk (10 μg). Three days post-transfection viral core-associated DNA was isolated, purified, and subjected to Southern blot analysis using a full-length ^32P-labeled WHV genomic probe.
Chang cells were transfected with infectious WHV clones, (2×10 cm plates) were washed twice with PBS and lysed in 500 μl lysis buffer/10 cm plate (20 mM Tris HCl pH 7.5, 1 mM EDTA, 100 mM NaCl, 0.5% NP-40) for 10-15 minutes. Lysates were centrifuged at 12,000×g for 30 minutes, MgCl2 was adjusted to 10 mM, DNAseI (Boehringer Mannheim) was added to 20 U /ml and the lysates were incubated at 37° C. for 2 hours. Following DNAse I treatment, the lysates were centrifuged for 5 min at 12,000×g, layered onto a 20% sucrose cushion (300 μl of 20% sucrose in 20 mM Tris HCl pH 8.0, 150 mM NaCl) and centrifuged for 178,000×g for 3 hours at 20° C. […]
Chang cells were co-transfected with plasmids encoding either wtWHV, pCWHV, wtWHV and RasDN, or wtWHV and Csk, intracellular core-associated viral DNA was isolated 3 days post-transfection, and purified viral DNA analyzed by Southern blot hybridization as described above (FIG. 7).

MAP kinase (ERK2) [3] = assay: MAP kinase (ERK2) MBP kinase assay in Chang cells transfected with wtWHV; format: cell-based; conditions: Chang cells co-transfected with wtWHV; serum-starved
Description: FIG. 6. Woodchuck Hepatitis B Virus (WHV) HBx protein (WHx) activates a Src-Ras signaling cascade during WHV replication in cultured cells. […] Eighteen hours post-transfection, cells were serum-starved in 0.5% CS for 20 hours, MAP kinase (ERK-2) was immunoprecipitated from equal amounts of cell lysates and pellets were subjected to an in vitro MBP kinase assay.
To assay for MAP kinase activity, cells were lysed in freshly prepared lysis buffer (10 mM Tris HCl pH 7.5, 1% Triton X-100, 0.5% NP-40, 1 mM EDTA, 1 mM EGTA, 1 mM Na3VO4, 50 mM NaF, 1 mM PMSF, 40 mM PPi, 10 μg/ml aprotinin, and 10 μg/ml leupeptin) and MAP kinase was immunoprecipitated using 1 μg/ml anti-ERK2 antibodies from equal amounts of protein. After 4 washes with lysis buffer, and 2 with kinase buffer (20 mM Hepes pH 7.4, 10 mM MgCl2), the immunoprecipitates were incubated with kinase buffer including 0.5 mg/ml myelin basic protein (MBP, Sigma), 10 mM ATP and 5 μCi [γ-^32P]ATP for 30 minutes at 30° C. […]
To determine whether WHx also requires activation of Src family kinases for stimulation of Ras signaling during ongoing viral replication, Chang cells were co-transfected with plasmids synthesizing wtWHV and dominant-negative Ras (RasDN), dominant-negative Src (SrcK^−), or Csk proteins, and activation of MAP kinase was measured. […]

WHV [4] = assay: Northern blot of WHV viral mRNAs in Chang cells; format: cell-based, Woodchuck Hepatitis B Virus; conditions: Chang cells co-transfected with wtWHV
Description: Chang cells were washed twice with PBS and total RNA prepared according to the manufacturer's instructions (RNeasy mini kit; Qiagen). 15 μg total RNA per sample were resolved through a 1.2% formaldehyde-agarose gel (Sambrook et al., 1989, supra), transferred to Duralon UV membrane, and pre-hybridized in Quick-Hyb solution (Stratagene) at 65° C. Hybridization to 32P-labeled full length WHV probe was carried out in the same solution at 65° C., washed as described above, and autoradiographed for 1 day.
It was next addressed whether the stimulation of viral replication by WHx was a result of transcriptional transactivation of WHV genes by WHx. Chang cells were transfected with wtWHV or pCWHV plasmids. Total cellular RNA was isolated 4 days post-transfection, equal amounts of RNA were resolved by electrophoresis through a 1.2% formaldehyde-agarose gel, and the viral mRNAs were visualized by Northern blot analysis using a ^32P-labeled probe corresponding to the entire WHV genome (FIG. 8, lanes 1 and 4). Steady-state levels of the genomic viral mRNAs was enhanced ˜3-5 fold in Chang cells expressing wtWHV as compared to PCWHV. […]

AP-1 [5] = assay: AP-1 dependent luciferase reporter in Chang cells expressing HBx; format: cell-based; conditions: AP-1 luciferase reporter
Description: (§1) FIGS. 3A and 3B. Transcriptional activation of AP-1 by HBx involves activation of Src kinases. Chang cells transfected with 8 μg plasmids pCMV-X or pCMV-Xo, with or without cotransfection of pCsk for 18 h, then serum starved for 18 h. (FIG. 3A) Cell extracts were prepared for AP-1 EMSA as described (Benn et al., 1996, supra) using a ^32P-labeled dsDNA oligonucleotide probe containing one AP-1 binding site. Reactions were carried out using 3 μg of nuclear extract, labeled oligonuleotide and 1 μg of poly(dI-dC) for 30 min at 23° C. Protein-DNA complexes were resolved by electrophoresis on 4% polyacrylamide gels and visualized by PhosphorImage analysis. As a positive control for AP-1 stimulation, cells were treated with 20 μM TPA for 30 min. (FIG. 3B) Cells were transfected as above but contained in addition 3 μg of plasmid pAP-1LUC, which encodes the luciferase reporter under the control of four AP-1 binding sites and a minimal TATA box promoter. Serum starved cells were harvested 18 h after transfection and the level of expression of the luciferase reporter assayed. Results are the average of three independent experiments.
Here it is shown that HBx activation of AP-1 DNA binding activity and AP-1 directed transcription, both involve an essential requirement for HBx activation of Src tyrosine kinases. […]

AP-1 [6] = assay: AP-1 electrophoretic mobility shift assay (EMSA) on nuclear extracts of Chang cells expressing HBx; format: cell-based; conditions: cotransfection of increasing amounts of plasmid
Description: as §1
Nuclear extracts were prepared according to a modified Dignam protocol (Su and Schneider, 1996). […]

B1: Csk: Csk (carboxyl-terminal Src kinase), a specific physiologic inhibitor of Src kinase, expressed from a CMV promoter plasmid (protein, UniProt P41240 2-450, looked up)
Tyrosine-protein kinase CSK: SAIQAAWPSGTECIAKYNFHGTAEQDLPFCKGDVLTIVAVTKDPNWYKAKNKVGREGIIPANYVQKREGVKAGTKLSLMPWFHGKITREQAERLLYPPETGLFLVRESTNYPGDYTLCVSCDGKVEHYRIMYHASKLSIDEEVYFENLMQLVEHYTSDADGLCTRLIKPKVMEGTVAAQDEFYRSGWALNMKELKLLQTIGKGEFGDVMLGDYRGNKVAVKCIKNDATAQAFLAEASVMTQLRHSNLVQLLGVIVEEKGGLYIVTEYMAKGSLVDYLRSRGRSVLGGDCLLKFSLDVCEAMEYLEGNNFVHRDLAARNVLVSEDNVAKVSDFGLTKEASSTQDTGKLPVKWTAPEALREKKFSTKSDVWSFGILLWEIYSFGRVPYPRIPLKDVVPRVEKGYKMDAPDGCPPAVYEVMKNCWHLDAAMRPSFLQLREQLEHIKTHELHL
effect on increase in N-Myc protein by HBx (N-Myc): impaired | effect on HBx activation of ERK2 (MAP kinase (ERK2) [1]; Chang cells co-expressing HBx, serum-starved in 0.5% CS for 24 hours): impaired | effect on HBx-induced activation of MAP kinase (MBP phosphorylation) (MAP kinase (ERK2) [1]; Chang cells co-transfected with HBx, serum-starved 20 hours, 2% serum restored for 2 hours): abolished | effect on activation of MAP kinase by insulin (MAP kinase (ERK2) [1]; Chang cells, overexpression, insulin stimulation): only slightly impaired | effect on expression of βgal protein from CMV-βgal (β-galactosidase activity) (CMV promoter): did not significantly alter | effect on WHV replication (viral DNA replicative intermediates) (WHV [2]): completely abolished | effect on downstream activation of MAP kinase by wtWHV (MAP kinase (ERK2) [3]): efficiently inhibited | reduction of WHV RNA level (WHV [4]): 3-5 fold | effect on HBx induced activation of AP-1 dependent transcription (AP-1 [5]): fully blocked | effect on HBx induction of AP-1 DNA binding complexes (AP-1 [6]): suppressed
